The domain aggregation screens of Martell et al. (2025)

assay: soluble fraction after stress (log2 fold change); higher = more stays soluble; pooled small domains, quantitative proteomics; details: stress: pH 4
Method in brief: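 Aggregation propensity is read out as the fold change in how much of each domain remains soluble after acid stress. The custom small-domain libraries were pooled, held at pH 4 and analysed with high-throughput quantitative proteomics. On the log2 scale used, higher values mean more of the domain stayed soluble.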

Row | Sequence | soluble fraction (log2)
1 | HMELIELTVTEEFEMARLDQFLAGHLTQSRTYIQKLIKAGQITINGNLITRVKVPVHYGDFILINIPDPE | -1.6
2 | HMDINVDILPLLKTMTDTLRKVIELDIPFLKDARVQRVNSLDELLLRADITTAEKFRKVFEAYQIEADFGK | -1.05
3 | HMKVWYAGINAQRVGPMTLGAMEQQIRYGRVLFSTLIWKSPMPQWVPAGDVPELRRLLDEHMLNQMP | -0.676
4 | HMTAYENSIPLNWVIQKGDAKGLPLSANTARLLIDIVGIDLMDLDHELEKISLYLSGESITEEMIKEHIRG | -1.01
5 | HMSQYELEDVEKQRLKFKNGDEKALWLLSDIYKDNSQSYEVRLAALRALSESRHPLIIFDIQSSVK | -0.898
6 | HMNTLPTDELMKYGIINEDLSFSKKLNADDIQKFLQGYTIVADNDKNRATFQLTENNTKLKVIFLER | -1.69
7 | HMNATQLSNTQKQIRTQLLERLSNNPLTVKQLADRMFVPIDTILKEITALIQEQKIIEDKGGKLQIN | 0.168
8 | HMGPEVQLAYSEFLAKVKVGEVNDVMVKGNEIHGHFSDGRTFSTYSPNDPDLVEKLNKNKVMIKAAPP | -0.0878
9 | HMSGRIWTDNYGRTIEADVIKVNINRTVLLEFTDKKTKTVSFDTFISKDIQYLEYLLTRRNRGKL | -1.14
10 | HMNLRLKEVLDEKNMSLVTLSEKTGIEKGNLSAISNNKKNPTVETLSKIAKALQISLAELFESPP | 0.169
11 | HMTPEPVTMYITSLTEFRSEPNTEAGIIKLLDAYEEVEMIESRGEWSKISYGDQIGYILSEFLTAENRT | -1.78
12 | HMTQQNRDELYRRMIDAGWDQLVRNGIRSLRVEQVAAAVGIAKGTFYHFFDSKDDFIYAMLMENRQ | -1.03
13 | HMTREAILDTAEELLQRRGYNAFSYHHIAVQLGIRNAAIHYHFPAKEDLGIELVSRFRIRLAE | -0.238
14 | HMGGPEVLELEDVKVGSPGPDEIKVTNHAIGLNYIDTYHRSGLYPLKLPSGIGLEAAGKVEEIGSNV | -0.511
15 | HMSNTGDIIRKLREESGVTAKELAHRIGLSASQMSRLESGKRRINSEVLTRIARALEVAPSQLID | 0.17
16 | HMQPEKELAPLIGQRVSVRLHDGDGGYRDLLGELESPDSIRKKNGEIAFFDPAKIAALRVVV | 0.326
17 | HMEISAIIGNNLQQLRKEQGLSLDQLALKTGVSKAVLSQLENGKANPTINTIWKIATALHVTYSALLEPP | -0.347
18 | HMKIDNPEYQKIMDMIPYFFQTRNYDEAIEALSYVIEQEPSFSEAYNKRATFYFMMGDFENSMKDIESTLA | -0.75
19 | HMSIASASVKEKIRDIVSSEPPQKPFSDAKIAEILAEDGIAIARRTVAKYREEIGIPTKSLRKR | 0.292
20 | HMSLNIIEITAKKEINELKSFNIIYFNFDKNNSIYEYKISEREKKEILEIEKIIKNSDNVTNYEIRYSF | -0.685
21 | HMLKLEEIQPNATVRGILPDALITVVNVKWFGSEALELTYKDTSGRVANQLLFRDDQPRLEIVE | -1.12
22 | HMEEIQLILAKNLKSIREKEKLSLEKVSQLTGVSKTMIGQIERGDSSPTLTTIWKIANGLKVSFTSLINNP | 0.182
23 | HMRPILTLEEAKAKALAHAGLKADQVTFTEAKLDWDDGKQVYDIEFYTADFKEYDYEIDAKTGEVLEVDY | 0.0375
24 | HMPIPIESEISRSPGQSIYAFVQQHYGRSGRSPADMRALVGLILRLNRQIRTPLLIPFGLVVVRPT | -0.253
25 | HMLTEKEEEVMQILWDNGPLFVREILEFYPDPKPHYNTVSTVIRVLEEKNFASHKAYGNTYQYFP | 0.18

Row | Sequence | soluble fraction (log2)
26 | HMERGEFQKLGRATLEQTLARAGKTLAEVSLKAMLETFAFAAEEDLYEALGRGRVSAAKVGETLFPALKGR | -0.942
27 | HMDYSWNFFIGFSVVDKVAGNLGTIEEIDDKTINTLFLVKNDDEDLIIPATEDFVEKIDAKKRILYLNLPE | -1.79
28 | HMNYEFLEKIGFSSNEAKVYGTLIKHKVLNGYEIAKLSGVARSLVYEVINRLVAKGAVIRIDGEPNFYKP | -0.236
29 | HMFDSYDIYDEAGNTVNTVKGKLSWGHLLEIYDRFDNHIGTVQERVLTFLPKFLMYINGQEIGEIR | -0.334
30 | HMKLTEEEFNAKRKAYLDRLETLNDEAVIKATFMEAASGLGLQKGSAEFGDLRKYFVDRIVDIK | -0.903
31 | HMLDFLVSKYESELLADLLWSLGVVAVEEREATGDLVTLRTSLGDDHSFTRELVQEKFPDVIVSTAL | -2.23
32 | HMERPYNGKQMEYHEGGVEKKETLFVEGGLSRVIQWDESGQKRSEVNISPTGVRREQYWDSSGKAIAKPS | 0.0672
33 | HMVMSVGENIAYFRKKLGLTQEMLSERIGVTAQAVSKWENGVTNPDISLLPRISEALGIGIGDLFD | -0.218
34 | HMHGETLAAKRREEIKVRIQNIYDQSEQIFGYRKITATLRSQGVVVSEKLVSQLMRELEISSVS | -0.896
35 | HMEFSYLEEIGHEKGDLIKGLQLIQQKEGYVSDDAVRAVAENFGMSPAEVEGVLTFYAQFKR | -1
36 | HMSEFSDRFRLLKDESGATLKELSEQLDITVPNLSYYMKGREPSYDILIKIADYFGVTTDWLIGRTDER | -0.643
37 | HMVQLAEGERYRRIQEANDFINRQQWPGKAAMGRLKDTEKAQYNLWLDYLDALEAVDTSSAPKINWPVPPE | -0.156
38 | HMTVLTDEIKVILISYIKENDFKKKHGNRKMMMTAQDMYDELVEKGYKISYPTVTQYVQKYRENETT | -0.0952
39 | HMDAYMGEAKDEETFAEEYLNDSGLLNEIPESVARYFDIVAYARDLLIGDFSLHDGHVFNMT | -0.377
40 | HMVIPATPTARRAKIAGLLADRSVRSQGELLTLLADAGIEVTQATLSRDLEALGAVKVRDGRGLVYAVPG | 0.365
41 | HMGGLIEPLSARELEVLELMSLGKTNQEIARDLVVASGTIKAHAASIYRKLDAANRTEAVTHARELGIL | -0.814
42 | HMRYTAAEMAKKLDISRSYLYYLKEAGVVEIEKNENGKPIWTESVYNQLFEYIKKNHRTEEADNTQ | -0.61
43 | HMTRYEQLAAQIRQQIEDNIWQSGDRLPSLRDTVKQSGLSLMTVLQSYQLLESQGWITARPQSGYYVAHR | -0.169
44 | HMLDPIQEGKKMLNSRLSGFGITPNTRLMNKLLAAYNISSREEFYGRIGAGIEDLSTLREVLLKGT | -0.182
45 | HMDAIDPKTVTSWADLWKPEYKSSLLLTDDAREVFQMALRKLGYSGNTTDPKEIEAAYNELKKLMPNVAAF | -0.474
46 | HMKYKTKRDMILALMKKEILSGELKPRTRLLISEVASRYEVSEIPVREAFQVLIQEDLVRSTGAGFEVT | 0.233
47 | HMNLESNQYVIDISDSQVINKDEFETILNQNKTKDIVIKSNNNVTFTFEKGSMIGAEGKDNYDFSSQVNY | -0.588
48 | HMATGIKAVDNVFGWMNLEQVAKTVGLDIPSVLRASGLPEDTPVDISIKKIPGVDDEELKDSLRQYIEKS | -0.237
49 | HMNEKLNEYLNQVKAYLNTSDNKEDIIKELEAVVLEKAEKKYGQITDESISKILSEFGSPAEVAKEYS | -0.103
50 | HMSVKIELNENEQAIFTAVQKVNEAVLPELRAQFSDMSNKAWDNSVKMLTKNNLLKVSKEGEILYIRM | 0.0421

Row | Sequence | soluble fraction (log2)
51 | HMITIDNYFNKEKELDFSSFPEALRKGHGFVSKATAHGSSWVSYHSSDAIKKTIDIYLSKLNEYLSNNAKA | 0.0989
52 | HMIMTGSIQEKNGKYYTVLNIKDKNGKYKKKWQTTGLPVKGNKRKAEQILRRRIAEYEANQL | ≥ 0.43
53 | HMATVELELKPEELRAGMILTKDLISGTGMMLLNKGVTLDNVKVEAIQRYYQLDPPLHGVFALVHGK | -0.896
54 | HMSKHLWNKVLPKVTTANITNLINQAIRKGEWRMDNKGVVHIIWRYRGKIIEVTGYLKDKVFNVGNAWVR | -0.134
55 | HMKANIGDQVFTQLKDQIINGEWRPGDRIPSEAQLIQLFGVSRGTVRQAVQKLAGEGLIVTRHGEGSFVQG | -0.0317
56 | HMGDSEMPVSEVVRLAKLDQISSIEISGTKLTIITNNLETYTSRIEENSTIIEILQRAGVDIGGLEIYPHG | -0.983
57 | HMLNNVDIHKLSEDLLLYKIKIDIKLKNIEDAISTIDYFSNKFPNSDLMPYVIYEKKLIDNI | -0.741
58 | HMASELQQVQALLESQRYNEALILIETTIGKGASESTELLFARADVFASSGRHDEAEQAYREL | -0.45
59 | HMDTQITPNKAKEIALAHAGVTEAAANFKKIKLDNKNGKSIYEIEFIANKSRYEFIVDAKNGSIIKFEK | 0.102
60 | HMQDTIDLVIQVNGKLRGQMNVPKDTDRATIEQLAINLENVQKIVAGNAIKKIIIVPGRLINIVVSKNL | -0.209
61 | HMGATYSQFLDQVDGGNVQKVTFSGDMRSGTNQISYTTRSGQSATITAPMDRDLINILRAKNVEIVQEEP | 0.22
62 | HMGEDFPYVAYATDSVRLRSKPSSSGDILAVIRQGDAVLITGSDGNYKIVEYEGRKGYVISAFLSQTP | -0.438
63 | HMDAKIKDYADAYAKMDPQQAASLFNNMTTGSLDLVAKILENIPANKRAAILEKMDVNAAAQVTEKMR | 0.188
64 | HMQFETVQDAFNHYRNASLEEIESRAAEIKGIIESDPEADVRALNIEIEGLHQAKQNILEKQKTK | -0.064
65 | HMAYQQITIKANVVNVRQGPGLSYDVMSQANKGETMNVISQKNNWYQVRLSGDKIGWVASWLVDNT | ≥ 0.43
66 | HMGRAAEETETFRTQGELDARIKELQGQMRDAAANLEFERAAGLRDTLKRLRTRGLGLSASP | -0.0313
67 | HMADLSAYAGKEGMTDSVLRPSGKVDIEGHILDAVSRGDFIEKGKRVIVIKAEGSYLVVKKRMP | 0.166
68 | HMENYYMPVVAGQSEQDAKSMLNAMKLSLSIQVQEQESDSVAKGLAIGTSPAAGSQIRKGSSVILYISKGA | 0.16
69 | HMGGYVTGTIDLTKFGYAFVITEESEDDVFVAARNLNTALHGDQVKVLLYARHKGKRPEGEVVEIISRSRA | -1.4
70 | HMLDDDAGMIQAILRKAPGHYLPLHDKSDPASIQAQLGISKAQFKRAVGTLMKQGLIRQVKGDGLYLTQ | 0.125
71 | HMAIDVQELARTRLRSLRTTLGYSLDELAARTHLSPSTISRLETGKRSLSLDVVVPLAQALHVSLDVLFEA | -0.666
72 | HMEAPPHEALSNREFQVLQLLSQGRSVTQIAHQLTLSANTISTYRARIFDKLGLHNPADLYAYAARHGLM | -0.0709
73 | HMAGHKVDFSELPARSQAFIGKNFPTEMVKNVEMERKDAKDHYTVLLSNGTKVMFDGTSGELTGV | 0.0825
74 | HMNLGDSLFHARRKQGLSQEAVAEQLGVSRQTVSKWEANETLPDIRQSKLMAKLYHTSLDELI | 0.138
75 | HMVEQVEISILPGEYSDTISQKLLDAGLIDDKAAFSKYINDTNVDNLIQPGTFTVPKGASYEEVAKILT | -1.35
